Where a chain is given by its changes, count along the chain named. In names and notes the source's numbering stands.
B1: PEAR1 (analyte of the BLI on biotinylated SVEP1) (receptor)
chain: LNPSDPNTCSFWESFTTTTKESHSRPFSLLPSEPCERPWEGPHTCPQPTVVYRTVYRQVVKTDHRQRLQCCHGFYESRGFCVPLCAQECVHGRCVAPNQCQCVPGWRGDDCSSECAPGMWGPQCDKPCSCGNNSSCDPKSGVCSCPSGLQPPNCLQPCTPGYYGPACQFRCQCHGAPCDPQTGACFCPAERTGPSCDVSCSQGTSGFFCPSTHSCQNGGVFQTPQGSCSCPPGWMGTICSLPCPEGFHGPNCSQECRCHNGGLCDRFTGQCRCAPGYTGDRCREECPVGRFGQDCAETCDCAPDARCFPANGACLCEHGFTGDRCTDRLCPDGFYGLSCQAPCTCDREHSLSCHPMNGECSCLPGWAGLHCNESCPQDTHGPGCQEHCLCLHGGVCQATSGLCQCAPGYTGPHCASLCPPDTYGVNCSARCSCENAIACSPIDGECVCKEGWQRGNCSVPCPPGTWGFSCNASCQCAHEAVCSPQTGACTCTPGWHGAHCQLPCPKGQFGEGCASRCDCDHSDGCDPVHGRCQCQAGWMGARCHLSCPEGLWGVNCSNTCTCKNGGTCLPENGNCVCAPGFRGPSCQRSCQPGRYGKRCVPCKCANHSFCHPSNGTCYCLAGWTGPDCSQPCPPGHWGENCAQTCQCHHGGTCHPQDGSCICPLGWTGHHCLEGCPLGTFGANCSQPCQCGPGEKCHPETGACVCPPGHSGAPCRIGIQEPFTVMPTTPVAYNSL
B2: PEAR1 D343N (receptor, human, UniProt Q5VY43 21-755, looked up)
chain: B1 chain with D323N
notes: PEAR1 with the natural human missense variant p.D343N (rs147639000) in an EGF-like domain of the ectodomain; the construct is not described; as a soluble analyte it is probably an ectodomain (surmise); also called PEAR1 p.D343N; rs147639000

Target: T1, biotinylated SVEP1 (mouse, UniProt A2AVA0 18-3567, biotin on the biotinylation domain (by BirA))
T1 construct: SVEP1, mouse Svep1 cDNA; biotinylation domain inserted in the C-terminus region upstream of the Myc tag; Same Svep1 construct as m1 with the biotinylation domain added; source: 293F cells, co-transfected with secreted BirA and supplemented with biotin, purified (Nuvia IMAC, Superose 6)
Assay: BLI; biotinylated SVEP1 loaded on Octet SA biosensors (20 min, about 0.7 nm shift), quenched with biocytin; PEAR1 or PEAR1 D343N 10-90 nM as analyte; 0.01% Tween 20 in calcium-containing DPBS; 15 min association, 15 min dissociation; global 1:1 fit
Conditions: both partners purified

T1 sequence (A2AVA0 18-3567): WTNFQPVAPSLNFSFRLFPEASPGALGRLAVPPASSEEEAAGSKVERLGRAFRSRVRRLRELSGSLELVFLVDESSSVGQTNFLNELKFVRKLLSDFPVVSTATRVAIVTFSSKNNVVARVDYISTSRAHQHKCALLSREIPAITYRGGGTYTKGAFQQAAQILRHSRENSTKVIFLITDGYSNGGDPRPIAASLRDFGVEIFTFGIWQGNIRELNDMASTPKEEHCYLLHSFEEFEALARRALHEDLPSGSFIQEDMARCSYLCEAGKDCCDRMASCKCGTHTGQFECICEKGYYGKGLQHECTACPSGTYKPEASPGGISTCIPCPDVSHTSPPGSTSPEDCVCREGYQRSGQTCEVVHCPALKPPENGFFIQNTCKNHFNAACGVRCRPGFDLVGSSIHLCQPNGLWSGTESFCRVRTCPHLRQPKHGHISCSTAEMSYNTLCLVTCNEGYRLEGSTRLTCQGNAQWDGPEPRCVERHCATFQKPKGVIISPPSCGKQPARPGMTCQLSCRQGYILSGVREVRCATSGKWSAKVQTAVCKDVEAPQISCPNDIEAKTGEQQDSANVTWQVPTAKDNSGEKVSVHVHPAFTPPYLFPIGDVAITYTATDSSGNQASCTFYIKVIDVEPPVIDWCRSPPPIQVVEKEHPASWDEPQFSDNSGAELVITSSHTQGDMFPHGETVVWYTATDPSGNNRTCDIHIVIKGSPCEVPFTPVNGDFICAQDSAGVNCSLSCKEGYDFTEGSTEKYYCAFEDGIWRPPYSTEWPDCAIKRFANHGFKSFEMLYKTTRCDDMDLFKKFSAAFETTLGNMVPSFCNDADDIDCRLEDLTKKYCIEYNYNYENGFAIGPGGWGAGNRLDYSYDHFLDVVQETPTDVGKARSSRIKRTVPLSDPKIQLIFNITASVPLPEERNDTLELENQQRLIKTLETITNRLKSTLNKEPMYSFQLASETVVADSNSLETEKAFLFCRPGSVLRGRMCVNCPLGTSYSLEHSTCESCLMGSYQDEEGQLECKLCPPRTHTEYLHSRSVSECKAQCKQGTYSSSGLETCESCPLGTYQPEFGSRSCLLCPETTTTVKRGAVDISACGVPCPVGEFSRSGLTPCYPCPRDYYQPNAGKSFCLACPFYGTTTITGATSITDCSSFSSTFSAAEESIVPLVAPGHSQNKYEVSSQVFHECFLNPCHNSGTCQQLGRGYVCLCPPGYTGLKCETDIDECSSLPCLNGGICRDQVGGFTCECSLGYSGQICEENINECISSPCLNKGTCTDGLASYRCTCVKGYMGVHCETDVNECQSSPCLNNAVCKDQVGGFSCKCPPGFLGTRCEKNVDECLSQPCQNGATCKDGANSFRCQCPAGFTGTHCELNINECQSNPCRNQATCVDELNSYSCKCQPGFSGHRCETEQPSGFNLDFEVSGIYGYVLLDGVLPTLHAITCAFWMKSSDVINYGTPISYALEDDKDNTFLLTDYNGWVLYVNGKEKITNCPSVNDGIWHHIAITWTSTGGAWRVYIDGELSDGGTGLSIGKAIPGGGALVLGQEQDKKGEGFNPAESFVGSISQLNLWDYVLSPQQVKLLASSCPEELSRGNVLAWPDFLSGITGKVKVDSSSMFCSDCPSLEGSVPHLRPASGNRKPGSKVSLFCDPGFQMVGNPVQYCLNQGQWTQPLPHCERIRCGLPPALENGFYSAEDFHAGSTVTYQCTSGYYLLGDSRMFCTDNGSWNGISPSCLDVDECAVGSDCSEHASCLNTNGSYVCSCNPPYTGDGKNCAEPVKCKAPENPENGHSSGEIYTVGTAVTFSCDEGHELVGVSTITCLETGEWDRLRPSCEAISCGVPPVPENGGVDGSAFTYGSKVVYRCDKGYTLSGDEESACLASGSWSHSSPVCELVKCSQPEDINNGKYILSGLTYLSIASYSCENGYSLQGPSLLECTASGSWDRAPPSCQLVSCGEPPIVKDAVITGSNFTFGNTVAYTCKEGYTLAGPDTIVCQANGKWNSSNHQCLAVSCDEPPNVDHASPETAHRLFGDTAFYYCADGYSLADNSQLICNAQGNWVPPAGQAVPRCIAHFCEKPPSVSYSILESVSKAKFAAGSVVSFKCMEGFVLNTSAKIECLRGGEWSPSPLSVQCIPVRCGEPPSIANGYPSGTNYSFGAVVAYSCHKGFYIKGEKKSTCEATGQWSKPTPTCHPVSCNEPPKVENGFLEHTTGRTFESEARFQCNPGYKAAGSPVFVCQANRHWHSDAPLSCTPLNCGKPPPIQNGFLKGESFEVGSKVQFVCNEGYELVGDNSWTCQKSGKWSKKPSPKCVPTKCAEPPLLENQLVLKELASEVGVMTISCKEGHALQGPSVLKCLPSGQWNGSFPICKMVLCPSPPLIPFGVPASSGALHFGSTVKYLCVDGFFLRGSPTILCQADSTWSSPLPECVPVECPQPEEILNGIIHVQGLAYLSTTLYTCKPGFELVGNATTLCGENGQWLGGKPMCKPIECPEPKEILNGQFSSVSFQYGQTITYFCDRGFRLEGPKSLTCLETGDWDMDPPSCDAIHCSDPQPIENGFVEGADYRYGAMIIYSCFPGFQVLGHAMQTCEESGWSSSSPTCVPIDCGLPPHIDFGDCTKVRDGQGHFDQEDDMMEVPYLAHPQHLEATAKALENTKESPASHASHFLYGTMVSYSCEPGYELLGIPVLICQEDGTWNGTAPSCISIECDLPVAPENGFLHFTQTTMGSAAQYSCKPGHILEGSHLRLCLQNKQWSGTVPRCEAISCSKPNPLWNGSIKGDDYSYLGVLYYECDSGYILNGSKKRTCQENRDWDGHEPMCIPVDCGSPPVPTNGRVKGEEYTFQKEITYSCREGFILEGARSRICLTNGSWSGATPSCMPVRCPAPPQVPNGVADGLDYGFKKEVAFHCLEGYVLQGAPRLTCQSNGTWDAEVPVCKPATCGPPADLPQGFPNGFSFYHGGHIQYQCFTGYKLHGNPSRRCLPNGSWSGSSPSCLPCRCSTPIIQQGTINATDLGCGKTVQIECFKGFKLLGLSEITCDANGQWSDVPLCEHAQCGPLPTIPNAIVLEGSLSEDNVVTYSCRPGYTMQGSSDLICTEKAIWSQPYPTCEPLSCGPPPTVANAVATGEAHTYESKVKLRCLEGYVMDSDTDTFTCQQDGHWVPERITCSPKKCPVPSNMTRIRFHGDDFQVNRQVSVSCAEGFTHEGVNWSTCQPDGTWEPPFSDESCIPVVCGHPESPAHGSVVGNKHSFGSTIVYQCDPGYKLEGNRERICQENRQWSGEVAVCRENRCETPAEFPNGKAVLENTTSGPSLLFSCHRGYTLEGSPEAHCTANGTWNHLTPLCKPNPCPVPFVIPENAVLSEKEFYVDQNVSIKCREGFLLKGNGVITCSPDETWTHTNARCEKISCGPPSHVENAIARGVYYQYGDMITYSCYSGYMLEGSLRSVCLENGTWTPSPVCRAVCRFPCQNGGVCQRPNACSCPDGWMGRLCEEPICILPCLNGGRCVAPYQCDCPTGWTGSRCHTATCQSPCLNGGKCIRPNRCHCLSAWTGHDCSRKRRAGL

Binder	Kd
B1	0.708 ± 0.003 nM
B2	1.76 ± 0.006 nM
